# Test results: patent publication US20040033534A1 (WISCONSIN ALUMNI RESEARCH FOUNDATION, published 2004)
# Positions of bridges follow the written chain, without caps; N, C: chain ends. No end group written: not given here.
# B1: GST-VanSc (Arg-93-TAA-283 stop) (protein)
# chain: RVMLSKFAKYFDEINTGIDVLIQNEDKQIELSAEMDVMEQKLNTLKRTLEKREQDAKLAEQRKNDVVMYLAHDIKTPLTSIIGYLSLLDEAPDMPVDQKAKYVHITLDKAYRLEQLIDEFFEITRYNLQTITLTKTHIDLYYMLVQMTDEFYPQLSAHGKQAVIHAPEDLTVSGDPDKLARVFNNILKNAA
# Tests used:
# [1] = target: PhoB (complete PhoB sequence)
# [2] = target: T1, VanR~P (phosphorylated VanR) (Enterococcus faecium, UniProt Q06239 1-231, phosphorylated with acetyl phosphate; Asp-55 is named as the residue that accepts the phosphoryl group); assay: cell-based or functional assay
# T1 sequence (Q06239 whole entry): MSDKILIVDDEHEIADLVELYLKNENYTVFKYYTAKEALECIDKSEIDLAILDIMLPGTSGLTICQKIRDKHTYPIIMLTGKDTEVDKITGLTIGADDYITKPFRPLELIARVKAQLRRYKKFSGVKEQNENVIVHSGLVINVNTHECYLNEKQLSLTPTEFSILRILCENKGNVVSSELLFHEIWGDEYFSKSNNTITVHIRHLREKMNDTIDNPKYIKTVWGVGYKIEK
# [3] = target: T1, VanR~P (phosphorylated VanR); assay: not stated (comparison of VanR and VanR˜P; reference is unphosphorylated VanR)
binder,measurement,setting,value
B1,phosphoryl transfer from VanS˜P to PhoB,[1],"VanS˜P was incubated with PhoB, and phosphoryl transfer was assessed"
SLAHDSIIGYLS [peptide SEQ ID NO. 2],"IC50 for inhibiting VanR˜P binding to [32P] PVanH (gel shift), relative to SEQ ID NO. 1",[2],10 fold
"SLCHDSVIGWEC (disulfide 3-12 (inferred), also called Peptide E12) [dodecamer peptide SEQ ID NO. 1]",fold difference between binding to VanR and binding to VanR˜P,[3],> 100 fold
